The target of assay [1] is T1, cynomolgus macaque (Macaca fascicularis) CD39 (Macaca fascicularis, UniProt P49961 7-510 (human entry)).
T1 construct: On engineered CHO cells and on primary cyno B cells and monocytes; also called cyno CD39; cCD39
T1 chain: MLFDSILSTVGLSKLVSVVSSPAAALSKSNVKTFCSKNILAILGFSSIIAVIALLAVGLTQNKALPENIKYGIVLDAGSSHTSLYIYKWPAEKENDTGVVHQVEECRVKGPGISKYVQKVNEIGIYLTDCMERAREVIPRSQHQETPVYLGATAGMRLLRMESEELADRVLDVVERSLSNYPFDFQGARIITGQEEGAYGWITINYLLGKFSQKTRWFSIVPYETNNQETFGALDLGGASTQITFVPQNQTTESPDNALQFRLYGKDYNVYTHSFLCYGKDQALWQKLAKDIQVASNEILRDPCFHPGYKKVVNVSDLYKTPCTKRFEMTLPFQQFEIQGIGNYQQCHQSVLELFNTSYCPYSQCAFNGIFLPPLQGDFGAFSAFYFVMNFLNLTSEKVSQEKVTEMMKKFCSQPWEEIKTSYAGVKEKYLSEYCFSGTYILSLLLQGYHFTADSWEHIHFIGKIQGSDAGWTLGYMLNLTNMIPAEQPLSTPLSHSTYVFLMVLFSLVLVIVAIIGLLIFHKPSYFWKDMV
In words: flow cytometry, 100 nM IgG, MFI on CHO-cCD39 / MFI on parental CHO.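 Also: antibodies bound to the cells for 30 min in PBS, then bound IgG was revealed with a fluorescent goat anti-human IgG secondary antibody, 20 min on ice.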 On the technique in general: Flow cytometry measures light scatter and fluorescence of single cells or particles in a stream.

Assay [2] has as its target T2, human CD39 (cellular) (human, UniProt P49961 1-510).
T2 construct: Same protein on engineered CHO cells and on cells that express it endogenously; also called hCD39; cellular CD39
T2 sequence: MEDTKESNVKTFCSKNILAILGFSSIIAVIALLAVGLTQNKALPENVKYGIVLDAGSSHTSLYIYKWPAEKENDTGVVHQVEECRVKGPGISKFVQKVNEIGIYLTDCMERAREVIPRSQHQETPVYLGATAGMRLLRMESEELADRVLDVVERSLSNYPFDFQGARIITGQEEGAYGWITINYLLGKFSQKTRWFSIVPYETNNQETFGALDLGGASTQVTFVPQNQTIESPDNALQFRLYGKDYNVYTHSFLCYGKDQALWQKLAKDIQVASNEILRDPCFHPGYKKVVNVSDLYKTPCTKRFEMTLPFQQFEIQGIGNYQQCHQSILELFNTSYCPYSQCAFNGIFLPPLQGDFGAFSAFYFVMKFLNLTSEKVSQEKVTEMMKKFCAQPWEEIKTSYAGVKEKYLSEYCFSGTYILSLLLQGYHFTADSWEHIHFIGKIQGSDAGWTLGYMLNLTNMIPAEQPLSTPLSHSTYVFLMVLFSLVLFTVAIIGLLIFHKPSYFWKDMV
Description: flow cytometry, 100 nM IgG, MFI on CHO-hCD39 / MFI on parental CHO.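 Also: cells exposed to IgG for 30 min on ice in PBS, bound antibody then revealed with a fluorescent goat anti-human IgG secondary (20 min, on ice).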

Assay [3] has as its target T3, Chimera #9 (Homo sapiens (Human), UniProt P49961 1-510).
T3 construct: Expressed on CHO cells
T3 chain: T2 sequence with E143Q, L144S, R147E, V151A, E153S, R154T, S157K, N158S
Description: FACS on CHO cells, 15 ug/ml; Chimera 2 with human D150 ([..]).

Assay [4] has as its target T4, Chimera #10 (Homo sapiens (Human), UniProt P49961 1-510).
T4 construct: Expressed on CHO cells
T4 chain: T2 sequence with E143Q, L144S, R147E, D150A, V151A, R154T, S157K, N158S
In words: FACS on CHO cells, 15 ug/ml; Chimera 2 with human E153 ([..]).

Assay [5] has as its target T5, Chimera #4 (Homo sapiens (Human), UniProt P49961 1-510).
T5 construct: Expressed on CHO cells
T5 chain: T2 sequence with N275G, E276G, I277V
In words: FACS on CHO cells, 15 ug/ml; human M1-S274 + mouse GGV + human L278-V510.

Assay [6] addresses T6, Chimera #2 (human, UniProt P49961 1-510).
T6 construct: Expressed on CHO cells; also called human-mouse Chimera #2
T6 chain: T2 sequence with E143Q, L144S, R147E, D150A, V151A, E153S, R154T, S157K, N158S
In words: FACS on CHO cells; human M1-E142 + mouse Q143-S158 ([..]) + human Y159-V510.

Numbering of substitutions follows the chain as printed.

B1: 31414 (antibody, human IgG4 S228P, kappa, V domains shown)
VH: QVQLVQSGAEVKKPGASVKVSCKASGYTFKSYEMHWVRQAPGQGLEWMGRINPSVGSTWYAQKFQGRVTMTRDTSTSTVYMELSSLRSEDTAVYYCARGKREGGTEYLRNWGQGTLVTVSS
VL: EIVLTQSPGTLSLSPGERATLSCRASQSVSSSYLAWYQQKPGQAPRLLIYGASSRATGIPDRFSGSGSGTDFTLTISRLEPEDFAVYYCQQYHSYITFGGGTKVEIKR
On to B1, for which the “Cell Binding (FOB)” value in assay [1] was 3570 fold over background; in assay [2] it was 1240 fold over background. The binding result in assay [3] is reported as “binds”; in assay [4], “binds”; in assay [5], “binds”; in assay [6], “no binding (tested: 15 ug/ml)”.

B2: 31418 (antibody, human IgG4 S228P, kappa, V domains shown)
VH: B1 VH with V55G, N110H
VL: B1 VL with H93Y, S94F
B2: the “Cell Binding (FOB)” value came to 3180 fold over background in assay [1] and 1080 fold over background in assay [2]. Besides, the binding result in assay [3] is given as “binds”; in assay [4], “binds”; in assay [5] it was “binds”; in assay [6] it was “no binding (tested: 15 ug/ml)”.
